In general, Kd refers to the free concentration of one partner at which half of the binding sites on the other are occupied at equilibrium, for simple one-to-one binding.

Kd data for one substance are collected here from patent publication US20230416383A1.

Targets include Human FcγRIIb (human) (UniProt P31994); Human FcγRIIa (human) (UniProt P12318); Human FcγRIIIb (human) (UniProt O75015).
Assay in all cases: SPR, mean +/- SD (n = 3)
In general terms: SPR reads the build-up and loss of mass on a sensor chip optically.

The target in test [1] is Cynomolgus FcγRIII (cynomolgus monkey) (UniProt Q8SPW2).
Test [2] deals with human FcγRI (hCD64) (human) (UniProt P12314).
The target in test [3] is recombinant Human Fc gamma RIIIA/CD16a (V176) (human) (UniProt P08637).
The target in test [4] is Cynomolgus FcγRI (cynomolgus monkey).
Test [5] addresses recombinant Human Fc gamma RIIIA/CD16a (V176F) (human) (UniProt P08637).
Test [6] addresses Cynomolgus FcRn (cynomolgus monkey) (UniProt Q8SPV9).
The target in test [7] is Cynomolgus FcγRIIb (cynomolgus monkey).
The target of test [8] is Cynomolgus FcγRIIa (cynomolgus monkey).

Chain of UniProt P12318 (P12318 36-218 limits assumed): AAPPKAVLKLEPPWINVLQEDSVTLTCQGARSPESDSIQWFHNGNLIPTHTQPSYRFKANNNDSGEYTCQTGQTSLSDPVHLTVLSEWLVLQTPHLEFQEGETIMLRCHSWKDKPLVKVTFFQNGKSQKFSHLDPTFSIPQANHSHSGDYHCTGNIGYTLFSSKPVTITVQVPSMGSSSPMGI
Chain of UniProt P12314 (P12314 16-288 limits assumed): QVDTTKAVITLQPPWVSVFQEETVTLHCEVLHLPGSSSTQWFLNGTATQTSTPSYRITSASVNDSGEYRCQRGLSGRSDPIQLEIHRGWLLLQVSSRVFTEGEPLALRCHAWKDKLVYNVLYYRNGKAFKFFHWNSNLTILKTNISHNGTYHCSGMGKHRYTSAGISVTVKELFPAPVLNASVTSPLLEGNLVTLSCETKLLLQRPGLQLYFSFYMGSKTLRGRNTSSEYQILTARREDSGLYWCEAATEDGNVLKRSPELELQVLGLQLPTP
Chain of UniProt P31994 (P31994 46-217 limits assumed): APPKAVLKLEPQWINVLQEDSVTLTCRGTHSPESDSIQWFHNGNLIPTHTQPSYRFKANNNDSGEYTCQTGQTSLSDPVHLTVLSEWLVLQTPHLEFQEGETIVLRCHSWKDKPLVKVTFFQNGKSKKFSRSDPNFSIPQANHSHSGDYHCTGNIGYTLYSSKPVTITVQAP
Chain of UniProt O75015 (O75015 17-200 limits assumed): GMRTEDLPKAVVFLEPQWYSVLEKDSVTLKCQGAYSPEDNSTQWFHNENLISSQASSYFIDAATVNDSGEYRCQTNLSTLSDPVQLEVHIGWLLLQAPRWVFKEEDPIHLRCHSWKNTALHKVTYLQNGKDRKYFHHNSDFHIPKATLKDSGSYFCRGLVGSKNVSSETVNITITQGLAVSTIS
Chain of UniProt Q8SPW2 (Q8SPW2 17-208 limits assumed): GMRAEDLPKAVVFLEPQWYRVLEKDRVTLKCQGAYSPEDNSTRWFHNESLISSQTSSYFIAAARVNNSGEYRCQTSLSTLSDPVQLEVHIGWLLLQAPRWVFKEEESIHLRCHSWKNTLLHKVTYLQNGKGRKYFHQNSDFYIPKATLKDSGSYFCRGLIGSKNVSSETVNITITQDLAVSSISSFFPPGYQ

As to Human IgG1 control (antibody), the Kd in test [1] was determined as 0.58 µM; in test [2] it was 0.0002 µM; in test [3], 0.575 µM; in the test with Human FcγRIIb (human), 4.23 µM; with Human FcγRIIa (human), 1.57 µM; in [4] it was 0.018 µM. Also, the Kd came to 2.82 µM in test [5]; 7.54 µM with Human FcγRIIIb (human); 0.237 µM in [6]; 2.32 µM in test [7]; 6.34 µM in test [8].
